Test [1] deals with unfolded HPV16 VLP (baculo-derived HPV16 VLPs in 0.2M carbonate buffer pH9.5) (Human papillomavirus type 16) (UniProt P03101). Nature of the test: ELISA, plates coated with VLP in carbonate buffer pH 9.5; antibody stock 35 µg/ml. Background: ELISA stands for enzyme-linked immunosorbent assay.
Test [2] addresses baculo-derived HPV16 VLPs in PBS (native form) (Human papillomavirus type 16) (UniProt P03101). The test is described as follows: ELISA, plates coated with baculo-derived HPV16 VLPs in PBS; antibody stock 35 µg/ml.

The results in this text go back to patent publication US6458368.

Turning to HPV16-L1 mAb CAMVIR-1 (antibody), the results for the IgG titer (reciprocal of the highest sample dilution that yielded an OD492 four times that of preimmune sample) (reciprocal dilution) in test [1] and in test [2] were 80000 and 16000, respectively.
